From IntAct's records for PubMed 29892012

B1: Coiled-coil alpha-helical rod protein 1 (Homo sapiens), Q8TD31 (parent)
chain: MFPPSGSTGLIPPSHFQARPLSTLPRMAPTWLSDIPLVQPPGHQDVSERRLDTQRPQVTMWERDVSSDRQEPGRRGRSWGLEGSQALSQQAEVIVRQLQELRRLEEEVRLLRETSLQQKMRLEAQAMELEALARAEKAGRAEAEGLRAALAGAEVVRKNLEEGSQRELEEVQRLHQEQLSSLTQAHEEALSSLTSKAEGLEKSLSSLETRRAGEAKELAEAQREAELLRKQLSKTQEDLEAQVTLVENLRKYVGEQVPSEVHSQTWELERQKLLETMQHLQEDRDSLHATAELLQVRVQSLTHILALQEEELTRKVQPSDSLEPEFTRKCQSLLNRWREKVFALMVQLKAQELEHSDSVKQLKGQVASLQEKVTSQSQEQAILQRSLQDKAAEVEVERMGAKGLQLELSRAQEARRRWQQQTASAEEQLRLVVNAVSSSQIWLETTMAKVEGAAAQLPSLNNRLSYAVRKVHTIRGLIARKLALAQLRQESCPLPPPVTDVSLELQQLREERNRLDAELQLSARLIQQEVGRAREQGEAERQQLSKVAQQLEQELQQTQESLASLGLQLEVARQGQQESTEEAASLRQELTQQQELYGQALQEKVAEVETRLREQLSDTERRLNEARREHAKAVVSLRQIQRRAAQEKERSQELRRLQEEARKEEGQRLARRLQELERDKNLMLATLQQEGLLSRYKQQRLLTVLPSLLDKKKSVVSSPRPPECSASAPVAAAVPTRESIKGSLSVLLDDLQDLSEAISKEEAVCQGDNLDRCSSSNPQMSS
partner: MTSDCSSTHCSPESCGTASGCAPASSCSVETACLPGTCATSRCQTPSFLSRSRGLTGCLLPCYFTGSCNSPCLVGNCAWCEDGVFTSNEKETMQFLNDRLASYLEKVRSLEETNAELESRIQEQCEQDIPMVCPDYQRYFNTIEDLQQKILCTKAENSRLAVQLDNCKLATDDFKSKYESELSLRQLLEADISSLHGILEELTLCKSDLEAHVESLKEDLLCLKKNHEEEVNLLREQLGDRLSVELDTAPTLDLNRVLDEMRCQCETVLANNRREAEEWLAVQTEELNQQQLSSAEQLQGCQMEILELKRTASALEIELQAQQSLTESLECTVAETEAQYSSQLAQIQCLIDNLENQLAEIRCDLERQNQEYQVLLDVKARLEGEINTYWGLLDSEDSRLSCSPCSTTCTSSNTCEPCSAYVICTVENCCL
B2: Coiled-coil alpha-helical rod protein 1 (Homo sapiens), Q8TD31 (parent)
chain: B1 chain
partner: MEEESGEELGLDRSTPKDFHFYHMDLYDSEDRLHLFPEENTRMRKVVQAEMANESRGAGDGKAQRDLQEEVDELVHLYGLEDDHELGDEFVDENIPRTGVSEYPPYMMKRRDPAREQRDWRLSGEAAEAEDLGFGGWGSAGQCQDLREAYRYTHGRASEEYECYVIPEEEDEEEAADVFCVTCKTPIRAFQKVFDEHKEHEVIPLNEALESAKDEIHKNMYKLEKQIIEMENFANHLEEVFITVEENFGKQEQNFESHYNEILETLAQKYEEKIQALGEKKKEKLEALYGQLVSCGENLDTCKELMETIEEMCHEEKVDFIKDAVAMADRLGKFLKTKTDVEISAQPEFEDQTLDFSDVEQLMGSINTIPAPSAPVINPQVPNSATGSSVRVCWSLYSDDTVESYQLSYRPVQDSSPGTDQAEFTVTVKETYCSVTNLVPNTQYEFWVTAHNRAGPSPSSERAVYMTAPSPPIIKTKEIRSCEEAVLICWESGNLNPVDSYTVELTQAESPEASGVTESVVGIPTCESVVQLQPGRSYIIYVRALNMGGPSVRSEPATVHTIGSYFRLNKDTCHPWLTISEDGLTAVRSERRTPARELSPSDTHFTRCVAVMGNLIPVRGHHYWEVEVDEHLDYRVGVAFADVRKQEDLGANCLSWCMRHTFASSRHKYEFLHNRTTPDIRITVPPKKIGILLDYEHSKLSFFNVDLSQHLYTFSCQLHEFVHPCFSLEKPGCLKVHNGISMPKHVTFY
B3: Coiled-coil alpha-helical rod protein 1 (Homo sapiens), Q8TD31 (parent)
chain: B1 chain
partner: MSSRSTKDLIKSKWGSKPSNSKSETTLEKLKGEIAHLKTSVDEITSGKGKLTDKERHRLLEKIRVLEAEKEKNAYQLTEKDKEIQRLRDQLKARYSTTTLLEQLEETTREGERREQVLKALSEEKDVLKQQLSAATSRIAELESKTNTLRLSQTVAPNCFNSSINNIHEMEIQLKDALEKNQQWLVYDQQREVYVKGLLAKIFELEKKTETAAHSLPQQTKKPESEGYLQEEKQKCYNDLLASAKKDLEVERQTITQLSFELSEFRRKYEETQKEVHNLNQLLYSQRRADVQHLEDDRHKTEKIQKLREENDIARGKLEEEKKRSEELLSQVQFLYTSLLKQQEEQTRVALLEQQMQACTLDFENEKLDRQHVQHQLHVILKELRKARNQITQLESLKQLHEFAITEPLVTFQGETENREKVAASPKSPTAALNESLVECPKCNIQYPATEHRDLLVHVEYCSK
B4: Coiled-coil alpha-helical rod protein 1 (Homo sapiens), Q8TD31 (parent)
chain: B1 chain
partner: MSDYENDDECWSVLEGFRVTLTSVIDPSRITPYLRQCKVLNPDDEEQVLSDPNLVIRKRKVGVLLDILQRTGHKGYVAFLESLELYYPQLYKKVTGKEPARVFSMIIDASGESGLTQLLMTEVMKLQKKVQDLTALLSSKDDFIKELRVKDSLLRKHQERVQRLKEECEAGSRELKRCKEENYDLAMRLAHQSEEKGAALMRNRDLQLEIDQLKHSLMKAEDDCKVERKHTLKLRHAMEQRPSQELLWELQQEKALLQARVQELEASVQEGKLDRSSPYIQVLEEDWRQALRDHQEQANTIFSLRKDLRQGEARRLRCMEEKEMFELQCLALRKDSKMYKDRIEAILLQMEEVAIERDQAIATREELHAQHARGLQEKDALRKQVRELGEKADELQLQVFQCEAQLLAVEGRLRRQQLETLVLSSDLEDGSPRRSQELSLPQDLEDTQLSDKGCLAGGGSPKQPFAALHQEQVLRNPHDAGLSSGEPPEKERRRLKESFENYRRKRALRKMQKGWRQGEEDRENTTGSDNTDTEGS
B5: Coiled-coil alpha-helical rod protein 1 (Homo sapiens), Q8TD31 (parent)
chain: B1 chain
partner: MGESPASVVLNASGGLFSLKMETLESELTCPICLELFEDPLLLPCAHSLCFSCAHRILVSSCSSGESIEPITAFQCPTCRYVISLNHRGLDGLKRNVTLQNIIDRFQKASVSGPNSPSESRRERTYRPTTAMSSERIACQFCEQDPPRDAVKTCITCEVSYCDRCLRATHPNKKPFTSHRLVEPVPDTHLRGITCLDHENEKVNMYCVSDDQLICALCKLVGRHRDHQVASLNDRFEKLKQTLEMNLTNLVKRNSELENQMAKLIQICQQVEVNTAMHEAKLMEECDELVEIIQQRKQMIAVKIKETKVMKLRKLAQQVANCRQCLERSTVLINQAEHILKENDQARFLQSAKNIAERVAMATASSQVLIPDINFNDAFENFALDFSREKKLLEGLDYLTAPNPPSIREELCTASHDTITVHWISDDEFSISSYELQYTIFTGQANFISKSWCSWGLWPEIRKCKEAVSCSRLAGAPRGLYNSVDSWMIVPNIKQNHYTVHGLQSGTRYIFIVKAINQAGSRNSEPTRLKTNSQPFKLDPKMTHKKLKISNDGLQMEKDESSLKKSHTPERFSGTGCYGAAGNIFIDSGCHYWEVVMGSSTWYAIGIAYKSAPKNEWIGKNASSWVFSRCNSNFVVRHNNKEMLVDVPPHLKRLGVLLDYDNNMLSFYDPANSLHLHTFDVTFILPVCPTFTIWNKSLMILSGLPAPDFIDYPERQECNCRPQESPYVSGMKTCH
B6: Coiled-coil alpha-helical rod protein 1 (Homo sapiens), Q8TD31 (parent)
chain: B1 chain
partner: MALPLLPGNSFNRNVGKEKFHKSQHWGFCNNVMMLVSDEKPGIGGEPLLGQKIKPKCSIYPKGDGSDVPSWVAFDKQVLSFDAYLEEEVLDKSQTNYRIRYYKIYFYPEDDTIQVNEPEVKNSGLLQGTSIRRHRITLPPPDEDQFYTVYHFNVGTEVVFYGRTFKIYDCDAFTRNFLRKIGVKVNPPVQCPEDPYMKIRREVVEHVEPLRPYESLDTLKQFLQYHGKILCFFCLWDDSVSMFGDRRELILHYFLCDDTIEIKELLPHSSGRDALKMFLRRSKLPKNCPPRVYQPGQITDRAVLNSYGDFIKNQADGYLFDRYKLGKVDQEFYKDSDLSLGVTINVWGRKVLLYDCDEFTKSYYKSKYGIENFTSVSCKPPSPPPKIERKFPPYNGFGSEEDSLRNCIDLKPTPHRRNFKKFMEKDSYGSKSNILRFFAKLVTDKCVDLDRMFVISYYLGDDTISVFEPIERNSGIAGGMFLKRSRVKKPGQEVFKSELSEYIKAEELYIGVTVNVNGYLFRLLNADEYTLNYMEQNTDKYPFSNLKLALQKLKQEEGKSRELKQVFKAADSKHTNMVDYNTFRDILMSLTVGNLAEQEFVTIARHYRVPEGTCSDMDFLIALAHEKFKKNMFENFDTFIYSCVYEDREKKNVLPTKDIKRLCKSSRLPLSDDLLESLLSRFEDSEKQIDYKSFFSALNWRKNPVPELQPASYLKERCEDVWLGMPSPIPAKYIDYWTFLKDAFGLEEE
B7: Coiled-coil alpha-helical rod protein 1 (Homo sapiens), Q8TD31 (parent)
chain: B1 chain
partner: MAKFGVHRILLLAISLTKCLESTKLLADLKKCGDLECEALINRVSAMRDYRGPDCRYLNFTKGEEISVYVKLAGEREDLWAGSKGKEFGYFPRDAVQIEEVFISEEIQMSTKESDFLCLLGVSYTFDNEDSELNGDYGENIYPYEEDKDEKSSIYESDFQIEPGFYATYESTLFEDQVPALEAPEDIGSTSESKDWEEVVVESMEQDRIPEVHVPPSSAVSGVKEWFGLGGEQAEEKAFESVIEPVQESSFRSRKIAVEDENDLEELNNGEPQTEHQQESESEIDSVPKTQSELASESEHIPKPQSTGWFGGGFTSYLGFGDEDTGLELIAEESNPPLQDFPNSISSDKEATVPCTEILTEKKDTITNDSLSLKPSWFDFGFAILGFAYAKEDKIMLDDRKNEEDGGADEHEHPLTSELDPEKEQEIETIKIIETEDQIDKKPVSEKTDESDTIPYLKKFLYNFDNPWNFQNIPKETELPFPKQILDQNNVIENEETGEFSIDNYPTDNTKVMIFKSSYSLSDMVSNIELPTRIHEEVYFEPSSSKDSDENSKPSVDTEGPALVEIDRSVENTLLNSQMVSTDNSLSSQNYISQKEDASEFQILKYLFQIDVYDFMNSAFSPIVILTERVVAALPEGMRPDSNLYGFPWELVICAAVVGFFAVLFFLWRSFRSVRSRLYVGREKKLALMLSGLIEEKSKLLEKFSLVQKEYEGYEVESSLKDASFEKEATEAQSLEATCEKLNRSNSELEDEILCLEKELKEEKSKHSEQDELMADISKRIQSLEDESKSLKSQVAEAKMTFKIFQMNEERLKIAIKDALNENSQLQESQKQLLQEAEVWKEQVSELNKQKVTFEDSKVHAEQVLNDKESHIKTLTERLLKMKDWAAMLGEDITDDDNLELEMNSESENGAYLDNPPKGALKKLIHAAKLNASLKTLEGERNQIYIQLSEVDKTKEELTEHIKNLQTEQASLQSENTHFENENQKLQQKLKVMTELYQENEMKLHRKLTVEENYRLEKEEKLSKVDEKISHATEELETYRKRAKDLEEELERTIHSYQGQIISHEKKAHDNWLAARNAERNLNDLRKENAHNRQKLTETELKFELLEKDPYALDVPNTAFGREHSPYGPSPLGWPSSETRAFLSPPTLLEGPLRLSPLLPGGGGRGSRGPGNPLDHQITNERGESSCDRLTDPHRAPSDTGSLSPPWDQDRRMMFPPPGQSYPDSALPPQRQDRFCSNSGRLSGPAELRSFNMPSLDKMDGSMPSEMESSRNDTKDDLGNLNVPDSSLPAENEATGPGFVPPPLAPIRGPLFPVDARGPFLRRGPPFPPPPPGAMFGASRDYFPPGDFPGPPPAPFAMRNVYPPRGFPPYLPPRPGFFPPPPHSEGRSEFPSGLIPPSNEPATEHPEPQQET

Variants of: B1
Conditions: with KRT40, Q6A162

How did the “effect of a mutation on the interaction” value turn out when W337R was run?
The value was “with no effect”.

Variants of: B2
Conditions: with fsd2_human FSD2, A1L4K1

For W337R, which “effect of a mutation on the interaction” value is on record?
The value was “with no effect”.

Variants of: B3
Conditions: with cep55_human CEP55, Q53EZ4

W337R was tested. Which “effect of a mutation on the interaction” value did it give?
The value was “disrupting interaction strength”.

Variants of: B4
Conditions: with card9_human CARD9, Q9H257

W337R was tested. Which “effect of a mutation on the interaction” value did it give?
The value was “disrupting interaction strength”.

Variants of: B5
Conditions: with trim1_human MID2, Q9UJV3

How did the “effect of a mutation on the interaction” value turn out when W337R was run?
The value was “disrupting interaction strength”.

Variants of: B6
Conditions: with efhc2_human EFHC2, Q5JST6

With W337R as the variant, how does the “effect of a mutation on the interaction” value read?
The value was “disrupting interaction strength”.

Variants of: B7
Conditions: with mia2_human MIA2, Q96PC5

W337R was tested. Which “effect of a mutation on the interaction” value did it give?
Its value is “disrupting interaction strength”.
